Results published in paper PMC5096715.

Columns and labels:
C3d C3d (Homo sapiens) = C3d C3d (Homo sapiens) (UniProt P01024); test: biolayer interferometry; details: cited from earlier work
[1] = biological target: complement component C3b, serum-derived (human) (UniProt P01024)
[2] = biological target: complement component C3b, serum-derived (human) (UniProt P01024); remark: listed apart in the source

C3d C3d (Homo sapiens), sequence (P01024 1002-1303): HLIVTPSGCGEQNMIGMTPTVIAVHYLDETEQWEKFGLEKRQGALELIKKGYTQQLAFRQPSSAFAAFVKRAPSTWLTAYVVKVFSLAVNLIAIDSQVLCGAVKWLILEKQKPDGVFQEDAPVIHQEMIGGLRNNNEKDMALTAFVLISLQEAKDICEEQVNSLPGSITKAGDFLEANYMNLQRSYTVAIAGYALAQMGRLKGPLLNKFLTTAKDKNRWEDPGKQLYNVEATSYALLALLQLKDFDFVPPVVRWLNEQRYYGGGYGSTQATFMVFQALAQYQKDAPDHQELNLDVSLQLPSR
complement factor H (CFH), recombinant, sequence (P08603 19-1231): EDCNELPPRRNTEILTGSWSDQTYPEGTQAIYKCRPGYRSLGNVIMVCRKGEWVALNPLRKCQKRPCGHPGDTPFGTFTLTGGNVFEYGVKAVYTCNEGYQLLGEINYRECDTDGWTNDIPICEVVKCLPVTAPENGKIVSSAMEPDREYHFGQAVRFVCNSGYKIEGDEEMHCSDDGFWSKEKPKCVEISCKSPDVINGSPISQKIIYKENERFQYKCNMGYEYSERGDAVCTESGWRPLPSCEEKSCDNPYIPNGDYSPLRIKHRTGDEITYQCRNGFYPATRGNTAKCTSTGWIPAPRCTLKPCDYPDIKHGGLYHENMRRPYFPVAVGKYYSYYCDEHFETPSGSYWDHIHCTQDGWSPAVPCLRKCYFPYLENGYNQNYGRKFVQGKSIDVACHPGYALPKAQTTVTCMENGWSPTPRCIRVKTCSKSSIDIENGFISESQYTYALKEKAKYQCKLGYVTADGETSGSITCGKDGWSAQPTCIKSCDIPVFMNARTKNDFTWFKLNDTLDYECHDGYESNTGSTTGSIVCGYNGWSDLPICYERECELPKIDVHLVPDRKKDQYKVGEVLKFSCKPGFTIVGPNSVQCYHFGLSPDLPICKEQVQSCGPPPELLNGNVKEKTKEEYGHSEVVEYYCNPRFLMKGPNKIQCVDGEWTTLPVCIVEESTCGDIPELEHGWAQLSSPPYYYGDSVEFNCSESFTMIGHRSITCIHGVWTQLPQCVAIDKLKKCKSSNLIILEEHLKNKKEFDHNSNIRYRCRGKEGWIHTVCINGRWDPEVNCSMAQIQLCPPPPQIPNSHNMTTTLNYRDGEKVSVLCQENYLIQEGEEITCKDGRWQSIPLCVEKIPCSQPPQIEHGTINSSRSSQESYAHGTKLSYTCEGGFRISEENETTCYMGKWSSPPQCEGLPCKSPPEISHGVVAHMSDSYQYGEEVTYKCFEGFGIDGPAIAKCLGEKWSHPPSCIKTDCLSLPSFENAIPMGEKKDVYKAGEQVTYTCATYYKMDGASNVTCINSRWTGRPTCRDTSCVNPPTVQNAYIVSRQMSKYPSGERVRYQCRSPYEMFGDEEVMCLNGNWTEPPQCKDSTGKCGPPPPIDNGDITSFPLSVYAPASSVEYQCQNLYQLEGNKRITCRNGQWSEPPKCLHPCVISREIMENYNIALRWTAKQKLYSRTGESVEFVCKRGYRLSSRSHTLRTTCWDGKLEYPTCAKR
CFHR3, sequence (Q02985 19-330): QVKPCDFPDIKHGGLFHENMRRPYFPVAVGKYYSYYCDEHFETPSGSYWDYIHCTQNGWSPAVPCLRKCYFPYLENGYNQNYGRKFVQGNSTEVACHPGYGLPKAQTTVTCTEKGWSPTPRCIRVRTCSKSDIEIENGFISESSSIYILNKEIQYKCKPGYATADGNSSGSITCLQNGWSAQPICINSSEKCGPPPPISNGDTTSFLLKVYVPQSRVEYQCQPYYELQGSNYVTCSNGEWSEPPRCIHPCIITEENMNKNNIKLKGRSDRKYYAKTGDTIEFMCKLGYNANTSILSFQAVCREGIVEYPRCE
complement factor H-related protein 1 (CFHR1), recombinant wild-type, sequence (Q03591 19-330): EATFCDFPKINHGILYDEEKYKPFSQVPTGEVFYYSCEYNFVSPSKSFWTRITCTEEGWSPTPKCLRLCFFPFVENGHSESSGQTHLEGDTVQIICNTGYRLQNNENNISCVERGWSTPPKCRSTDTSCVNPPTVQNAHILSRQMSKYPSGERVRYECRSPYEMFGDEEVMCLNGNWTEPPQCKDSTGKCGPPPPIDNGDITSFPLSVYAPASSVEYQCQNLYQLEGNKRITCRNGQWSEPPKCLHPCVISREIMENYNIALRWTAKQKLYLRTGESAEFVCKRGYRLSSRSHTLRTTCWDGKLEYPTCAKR
CFHR1, sequence (Q03591 19-330): as above

Substance: CFHR1 (from UniProt Q03591)
- Kd (C3d C3d (Homo sapiens)): 1200 nM

Substance: CFHR1 Mut1 (N216A/D218A) (from UniProt Q03591 19-330) (natural protein)
- alternative pathway hemolysis of guinea pig erythrocytes in 10% NHS with 140 nM CFH plus 2 μM CFHR1 Mut1 (competition with CFH for C3b; ~8% with CFH alone) [1]: 8%

Substance: CFHR1 Mut2 (Q238A/Y241A) (from UniProt Q03591 19-330) (natural protein)
- alternative pathway hemolysis of guinea pig erythrocytes in 10% NHS with 140 nM CFH plus 2 μM CFHR1 Mut2 (competition with CFH for C3b; ~8% with CFH alone) [1]: 6%

Substance: CFHR1 Mut3 (Y52S/S54Y/Y57E) (from UniProt Q03591 19-330) (natural protein)
- alternative pathway hemolysis of guinea pig erythrocytes in 10% NHS with 140 nM CFH plus 2 μM CFHR1 Mut3 (competition with CFH for C3b; ~8% with CFH alone) [2]: 12%

Substance: CFHR3 (from UniProt Q02985)
- Kd (C3d C3d (Homo sapiens)): 1100 nM

Substance: complement factor H (CFH), recombinant (from UniProt P08603-1 19-1231) (natural protein)
- alternative pathway hemolysis of guinea pig erythrocytes in 10% NHS with 140 nM CFH added (~58% without added CFH) [1]: 8%

Substance: complement factor H-related protein 1 (CFHR1), recombinant wild-type (from UniProt Q03591 19-330) (natural protein)
- alternative pathway hemolysis of guinea pig erythrocytes in 10% NHS with 140 nM CFH plus 2 μM wild-type CFHR1 (competition with CFH for C3b; ~8% with CFH alone) [1]: 23%
